The values below come from the supplement of paper PMC9112550, “Optimization of the antimicrobial peptide Bac7 by deep mutational scanning” (BMC Biology, 2022).

The subject of this data set is Escherichia coli TOP10. Kind of data set: shrunken log2 fold change of peptide-encoding DNA abundance (4.5 h post-induction vs induction); higher = less antimicrobial activity (less host growth inhibition). The note with it: time post-induction: 4.5 h; library: site-saturation at positions 5, 18, 19, 20.
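Further: peptides expressed intracellularly from a pBAD plasmid library in pooled LB shake-flask culture, induced with 0.3% L-arabinose, DNA abundance read by NGS, three biological replicates, DESeq2 with apeglm shrinkage.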

As to RRIRRRPPRLPRPRPRPAPFPRP, the “shrunken log2 fold change” value amounted to 0.863.

With RRIRMRPPRLPRPRPRPWTCPRP, the “shrunken log2 fold change” value was -0.0398.

For the sequence RRIRFRPPRLPRPRPRPDEQPRP, the “shrunken log2 fold change” value is 0.00595.

For the sequence RRIRQRPPRLPRPRPRPDDQPRP, the “shrunken log2 fold change” value amounted to 0.164.

Take RRIRWRPPRLPRPRPRPMKHPRP: the “shrunken log2 fold change” value is -0.0254.

RRIRVRPPRLPRPRPRPKEKPRP: the “shrunken log2 fold change” value is -0.0337.

As to RRIRERPPRLPRPRPRPTLTPRP, the “shrunken log2 fold change” value is -0.0194.

In the case of RRIRGRPPRLPRPRPRPQKVPRP, the “shrunken log2 fold change” value was 0.129.

RRIRMRPPRLPRPRPRPVRKPRP: the “shrunken log2 fold change” value worked out at 0.136.

For RRIRFRPPRLPRPRPRPTGLPRP, the “shrunken log2 fold change” value is -0.118.

As for RRIRDRPPRLPRPRPRPISWPRP, the “shrunken log2 fold change” value stood at 0.0803.

As for RRIRCRPPRLPRPRPRPPTFPRP, the “shrunken log2 fold change” value was -0.331.

Regarding RRIRYRPPRLPRPRPRPKYFPRP, the “shrunken log2 fold change” value is -0.314.

Regarding RRIRARPPRLPRPRPRPYTTPRP, the “shrunken log2 fold change” value was -0.168.

RRIRHRPPRLPRPRPRPLTKPRP: the “shrunken log2 fold change” value was 0.133.

With RRIRERPPRLPRPRPRPHMIPRP, the “shrunken log2 fold change” value amounted to 0.0284.

Turning to RRIRMRPPRLPRPRPRPLFMPRP, the “shrunken log2 fold change” value came to 0.0387.

For RRIRMRPPRLPRPRPRPTCNPRP, the “shrunken log2 fold change” value was -0.0778.

As to RRIRERPPRLPRPRPRPKRSPRP, the “shrunken log2 fold change” value is -0.0414.

For the sequence RRIRWRPPRLPRPRPRPVKGPRP, the “shrunken log2 fold change” value is -0.0905.

Turning to RRIRSRPPRLPRPRPRPTQHPRP, the “shrunken log2 fold change” value amounted to 0.376.

Take RRIRARPPRLPRPRPRPMDYPRP: the “shrunken log2 fold change” value was -0.407.

As for RRIRQRPPRLPRPRPRPHMMPRP, the “shrunken log2 fold change” value was -0.526.

As for RRIRWRPPRLPRPRPRPCCCPRP, the “shrunken log2 fold change” value is 0.129.

RRIRFRPPRLPRPRPRPGPCPRP: the “shrunken log2 fold change” value is 0.0242.

Regarding RRIRRRPPRLPRPRPRPYMWPRP, the “shrunken log2 fold change” value was -0.374.

RRIRRRPPRLPRPRPRPNNEPRP: the “shrunken log2 fold change” value was -0.246.

As to RRIRPRPPRLPRPRPRPNWLPRP, the “shrunken log2 fold change” value is 0.124.

On to RRIRCRPPRLPRPRPRPAMKPRP, for which the “shrunken log2 fold change” value is -0.104.

As for RRIRARPPRLPRPRPRPAADPRP, the “shrunken log2 fold change” value was 1.13.

As to RRIRNRPPRLPRPRPRPGKIPRP, the “shrunken log2 fold change” value is -0.284.

In the case of RRIRMRPPRLPRPRPRPTTHPRP, the “shrunken log2 fold change” value was found to be 0.295.

Take RRIRCRPPRLPRPRPRPYKPPRP: the “shrunken log2 fold change” value is -0.705.

As for RRIRCRPPRLPRPRPRPTTSPRP, the “shrunken log2 fold change” value was -0.0643.

Turning to RRIRDRPPRLPRPRPRPSAVPRP, the “shrunken log2 fold change” value was found to be 0.291.

Consider RRIRPRPPRLPRPRPRPGRNPRP, for which the “shrunken log2 fold change” value was -0.0548.

Turning to RRIRDRPPRLPRPRPRPLHDPRP, the “shrunken log2 fold change” value is -0.0658.

As for RRIRHRPPRLPRPRPRPKTIPRP, the “shrunken log2 fold change” value was -0.486.

For the sequence RRIRNRPPRLPRPRPRPSTNPRP, the “shrunken log2 fold change” value was -0.337.

Regarding RRIRRRPPRLPRPRPRPDDNPRP, the “shrunken log2 fold change” value turned out to be 0.18.

In the case of RRIRRRPPRLPRPRPRPAVTPRP, the “shrunken log2 fold change” value was -0.111.

As to RRIRARPPRLPRPRPRPEAIPRP, the “shrunken log2 fold change” value came to 0.839.

Turning to RRIRWRPPRLPRPRPRPKLSPRP, the “shrunken log2 fold change” value is -0.0389.

Turning to RRIRWRPPRLPRPRPRPPCGPRP, the “shrunken log2 fold change” value turned out to be 0.255.

For RRIRLRPPRLPRPRPRPKRIPRP, the “shrunken log2 fold change” value turned out to be 0.109.

RRIRYRPPRLPRPRPRPWVCPRP: the “shrunken log2 fold change” value was -0.0275.

For RRIRQRPPRLPRPRPRPNHMPRP, the “shrunken log2 fold change” value was -0.422.

Consider RRIRHRPPRLPRPRPRPDYNPRP, for which the “shrunken log2 fold change” value is -0.901.

For the sequence RRIRYRPPRLPRPRPRPWHHPRP, the “shrunken log2 fold change” value was -0.271.

With RRIRKRPPRLPRPRPRPHKVPRP, the “shrunken log2 fold change” value is -0.033.

With RRIRQRPPRLPRPRPRPVPAPRP, the “shrunken log2 fold change” value stood at 0.475.

For RRIRPRPPRLPRPRPRPFEHPRP, the “shrunken log2 fold change” value was 0.0626.

In the case of RRIRWRPPRLPRPRPRPDRSPRP, the “shrunken log2 fold change” value was found to be 0.0405.

For RRIRHRPPRLPRPRPRPTMDPRP, the “shrunken log2 fold change” value is -0.179.

In the case of RRIRKRPPRLPRPRPRPNRTPRP, the “shrunken log2 fold change” value was -0.0227.

Consider RRIRYRPPRLPRPRPRPMGCPRP, for which the “shrunken log2 fold change” value is -0.0637.

With RRIRMRPPRLPRPRPRPYMQPRP, the “shrunken log2 fold change” value is -0.338.

RRIRNRPPRLPRPRPRPRLYPRP: the “shrunken log2 fold change” value is -0.142.

On to RRIRLRPPRLPRPRPRPKDRPRP, for which the “shrunken log2 fold change” value was found to be 0.0663.

As to RRIRFRPPRLPRPRPRPFPPPRP, the “shrunken log2 fold change” value is -0.123.

As for RRIRSRPPRLPRPRPRPKQVPRP, the “shrunken log2 fold change” value is 0.0497.

As to RRIRDRPPRLPRPRPRPTQKPRP, the “shrunken log2 fold change” value was 0.268.

As for RRIRFRPPRLPRPRPRPFTYPRP, the “shrunken log2 fold change” value was -0.208.

On to RRIRCRPPRLPRPRPRPEAEPRP, for which the “shrunken log2 fold change” value came to 0.656.

Consider RRIRIRPPRLPRPRPRPPGPPRP, for which the “shrunken log2 fold change” value amounted to 0.575.

In the case of RRIRKRPPRLPRPRPRPISIPRP, the “shrunken log2 fold change” value came to 0.0294.

On to RRIRFRPPRLPRPRPRPTENPRP, for which the “shrunken log2 fold change” value was -0.115.

Take RRIRNRPPRLPRPRPRPSPFPRP: the “shrunken log2 fold change” value was -0.287.

In the case of RRIRERPPRLPRPRPRPCGAPRP, the “shrunken log2 fold change” value amounted to 0.469.

Regarding RRIRNRPPRLPRPRPRPWMTPRP, the “shrunken log2 fold change” value was -0.189.

For the sequence RRIRHRPPRLPRPRPRPQMEPRP, the “shrunken log2 fold change” value was -0.00192.

Take RRIRQRPPRLPRPRPRPSKKPRP: the “shrunken log2 fold change” value came out at 0.0216.

Turning to RRIRIRPPRLPRPRPRPEGDPRP, the “shrunken log2 fold change” value is 0.574.

For RRIRPRPPRLPRPRPRPRHNPRP, the “shrunken log2 fold change” value was -0.0793.

For RRIRCRPPRLPRPRPRPIHLPRP, the “shrunken log2 fold change” value was -0.193.

Take RRIRERPPRLPRPRPRPHWKPRP: the “shrunken log2 fold change” value is -0.0167.

With RRIRGRPPRLPRPRPRPTNCPRP, the “shrunken log2 fold change” value was determined as 0.31.

Regarding RRIRIRPPRLPRPRPRPENFPRP, the “shrunken log2 fold change” value was -0.0605.

Regarding RRIRCRPPRLPRPRPRPYLGPRP, the “shrunken log2 fold change” value was -0.213.

Take RRIRRRPPRLPRPRPRPISAPRP: the “shrunken log2 fold change” value stood at 0.122.

In the case of RRIRSRPPRLPRPRPRPDSWPRP, the “shrunken log2 fold change” value was 0.0247.

With RRIRKRPPRLPRPRPRPYWWPRP, the “shrunken log2 fold change” value is -0.454.

Consider RRIRFRPPRLPRPRPRPGSRPRP, for which the “shrunken log2 fold change” value amounted to 0.191.

For the sequence RRIRNRPPRLPRPRPRPAFYPRP, the “shrunken log2 fold change” value was -0.065.

Turning to RRIRGRPPRLPRPRPRPYIFPRP, the “shrunken log2 fold change” value was -0.135.

With RRIRKRPPRLPRPRPRPDLEPRP, the “shrunken log2 fold change” value stood at 0.0158.

Regarding RRIRWRPPRLPRPRPRPVAYPRP, the “shrunken log2 fold change” value was -0.0891.

For the sequence RRIRWRPPRLPRPRPRPSQRPRP, the “shrunken log2 fold change” value is -0.0741.

With RRIRDRPPRLPRPRPRPCEHPRP, the “shrunken log2 fold change” value is -0.133.

Turning to RRIRSRPPRLPRPRPRPECLPRP, the “shrunken log2 fold change” value was 0.18.

Regarding RRIRYRPPRLPRPRPRPTNDPRP, the “shrunken log2 fold change” value was -0.404.
